# Measured values taken from patent US20220033450A1, “VIRALLY EXPRESSED INHIBITORS OF PDZ DOMAINS, SUCH AS PICK1 AND USES THEREOF” (University of Copenhagen, priority 2018, published 2022).
# Target: Protein Interacting with C Kinase-1 (PICK1), Q9EP80
# Experiment: FP competition, PICK1 0.15 µM, tracer PEG4 linked dimeric C5 20 nM
# Sequence of Protein Interacting with C Kinase-1 (PICK1), Q9EP80 (Q9EP80 whole entry): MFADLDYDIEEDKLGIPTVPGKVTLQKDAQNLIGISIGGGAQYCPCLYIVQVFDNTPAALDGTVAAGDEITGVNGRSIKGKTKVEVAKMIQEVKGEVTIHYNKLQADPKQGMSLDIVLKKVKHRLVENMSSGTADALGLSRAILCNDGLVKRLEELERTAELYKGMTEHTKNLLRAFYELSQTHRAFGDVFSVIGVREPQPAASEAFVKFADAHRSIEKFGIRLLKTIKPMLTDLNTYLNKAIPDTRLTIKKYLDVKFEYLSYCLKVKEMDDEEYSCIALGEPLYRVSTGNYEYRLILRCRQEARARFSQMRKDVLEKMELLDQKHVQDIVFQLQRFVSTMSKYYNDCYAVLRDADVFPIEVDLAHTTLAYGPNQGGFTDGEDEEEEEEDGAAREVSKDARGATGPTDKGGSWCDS
binder,measurement,value
"GEELLEDIRKFNEMRKNMDQLKEKINSVLSIRQGGGGSHWLKV (designed binder, modifications not checked) [SSO10a-GS4-HWLKV]",fold increase in affinity over DATC5,16 fold
